Molecular target: GAPDH (Homo sapiens, UniProt P04406)
Assay: ELISA

Chain of GAPDH (P04406 2-335): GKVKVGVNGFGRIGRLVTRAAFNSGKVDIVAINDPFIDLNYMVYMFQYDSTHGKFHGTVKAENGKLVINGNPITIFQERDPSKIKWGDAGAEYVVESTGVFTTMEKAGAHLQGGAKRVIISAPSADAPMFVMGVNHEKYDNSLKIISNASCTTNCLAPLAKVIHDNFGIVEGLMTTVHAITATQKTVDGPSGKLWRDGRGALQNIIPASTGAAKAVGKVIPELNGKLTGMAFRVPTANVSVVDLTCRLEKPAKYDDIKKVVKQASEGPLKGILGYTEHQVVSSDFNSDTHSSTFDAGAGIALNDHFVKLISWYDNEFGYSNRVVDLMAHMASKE

Kd: 96 µM
B1: TRAF2 (protein)
chain: AAASVTPPGSLELLQPGFSKTLLGTKLEAKYLCSACRNVLRRPFQAQCGHRYCSFCLASILSSGPQNCAACVHEGIYEEGISILESSSAFPDNAARREVESLPAVCPSDGCTWKGTLKEYESCHEGRCPLMLTECPACKGLVRLGEKERHLEHECPERSLSCRHCRAPCCGADVKAHHEVCPKFPLTCDGCGKKKIPREKFQDHVKTCGKCRVPCRFHAIGCLETVEGEKQQEHEVQWLREHLAMLLSSVLEAKPLLGDQSHAGSELLQRCESLEKKTATFENIVCVLNREVERVAMTAEACSRQHRLDQDKIEALSSKVQQLERSIGLKDLAMADLEQKVLEMEASTYDGVFIWKISDFARKRQEAVAGRIPAIFSPAFYTSRYGYKMCLRIYLNGDGTGRGTHLSLFFVVMKGPNDALLRWPFNQKVTLMLLDQNNREHVIDAFRPDVTSSSFQRPVNDMNIASGCPLFCPVSKMEAKNSYVRDDAIFIKAIVDLTGL
